Test results published in patent publication US20190169311A1.

Experiments:
[1] = biological target: TFECDHis (human) (UniProt P13726); experiment: ELISA, coated TFECDHis; mean of 3 experiments
[2] = biological target: TFECDHis (human) (UniProt P13726); experiment: cross-competition ELISA; competitor: coated 11
[3] = biological target: TFECDHis (human) (UniProt P13726); experiment: cross-competition ELISA; competitor: coated 44
[4] = biological target: TFECDHis (human) (UniProt P13726); experiment: cross-competition ELISA; competitor: coated 101
[5] = biological target: TFECDHis (human) (UniProt P13726); experiment: cross-competition ELISA; competitor: coated 111
[6] = biological target: TFECDHis (human) (UniProt P13726); experiment: cross-competition ELISA; competitor: coated 114
[7] = biological target: TFECDHis (human) (UniProt P13726); experiment: cross-competition ELISA; competitor: coated 087-Lg6
[8] = biological target: TFECDHis (human) (UniProt P13726); experiment: cross-competition ELISA; competitor: coated 092-A09
[9] = biological target: TFECDHis (human) (UniProt P13726); experiment: SPR (BIAcore 3000), antibody immobilized, TFECDHis as analyte

HuMab-TF-011 (antibody)
EC50 [1]: 0.16 nM | competition value (unit not given) [2]: 20 | competition value (unit not given) [3]: 143 | competition value (unit not given) [4]: 23 | competition value (unit not given) [5]: 175 | competition value (unit not given) [6]: 19 | competition value (unit not given) [7]: 929 | competition value (unit not given) [8]: 21 | Kd [9]: 3.15 nM
